In US20040033954A1, “Therapeutic method for combined use of modified CNTF and thiadolidinedione” (priority 2002, published 2004):

Assays:
[1] = cited from earlier work
[2] = previously found by the applicant; cited from earlier work
C57Ks/J db/db male mice = assay: Fatty liver of db/db mice, Oil-Red O staining for neutral lipid; assay type: in vivo; conditions: 10-week-old db/db male mice; Avandia 3 or 10 mg/kg/day oral gavage for 13 days, ± Axokine 0.1 or 0.3 mg/kg/day in the last 8 days
Procedure: The effects of Avandia™ administration ±Axokine™ (SEQ ID NO:1) on fatty liver of db/db mice was examined. 10-week-old C57Ks/J db/db male mice were treated for 13 days with either vehicle or Avandia™ alone (3 or 10 mg/kg/day) by oral gavage or ±Axokine™ (0.1 or 0.3 mg/kg/day) in the last 8 days. 24 hours after the last administration (day 14) all animals were anesthetized , the liver removed and rapidly frozen until it could be processed. The tissues were sectioned, mounted on glass, and stained with Oil-Red O for the detection of neutral lipid.

C57BL/KsJ db/db mice = assay: Body weight and food intake of db/db mice under daily treatment; assay type: in vivo
Procedure: FIG. 1 is a graph of the effect of co-administration of Axokine™ (SEQ ID NO:1) (0.1 or 0.3 mg/kg s.c.), Avandia™ (3 or 10 mg/kg/day oral gavage) , or vehicle for 12 days on body weight in C57BL/KsJ db/db mice (% change from the first day of treatment). At day 5 (arrow), two combined treatment groups were initiated receiving Avandia™ (3 mg/kg/day, oral gavage)+Axokine™ (0.1 or 0.3 mg/kg s.c.). All data represents the mean (n≧6)±SEM.
C57BL/KsJ db/db mice were treated by daily administration of Axokine™ (SEQ ID NO:1) (0.1 or 0.3 mg/kg s.c.), Avandia™ (3 or 10 mg/kg/day oral gavage), and vehicle (vehicle) for […], and the effect on body weight determined (FIG. 1, shown as the % change from the first day of treatment). […] A combined treatment group consisted of Avandia™ (3 mg/kg/day, oral gavage) +Axokine™ (0.1 or 0.3 mg/kg s.c.) administered for the […] (arrow, FIG. 1). All data represents the mean (n>6)±SEM.

[3] = daily injection 0.1 or 0.3 mg/kg s.c.

In the case of CN(CCOc1ccc(CC2SC(=O)NC2=O)cc1)c1ccccn1 (stereo not shown) [Avandia™, rosiglitazone], the body weight ([1]; Chaput et al. (2000)) is given as “increased body weight”.

For Cc1c(C)c2c(c(C)c1O)CCC(C)(COc1ccc(CC3SC(=O)NC3=O)cc1)O2 (stereo not shown) [troglitazone], the hepatic reaction ([1]; patients, Lebovitz et al. (2002)) is given as “idiosyncratic hepatic reaction leading to hepatic failure and death in some patients”.

B1: Axokine™: modified CNTF molecule (SEQ ID NO:1) with improved physical and chemical properties, which activates the CNTF receptor (protein)
chain: MAFTEHSPLTPHRRDLASRSIWLARKIRSDLTALTESYVKHQGLNKNINLDSADGMPVASTDRWSELTEAERLQENLQAYRTFHVLLARLLEDQQVHFTPTEGDFHQAIHTLLLQVAAFAYQIEELMILLEYKIPRNEADGMPINVGDGGLFEKKLWGLKVLQELSQWTVRSIHDLRFISSHQTG
For B1, the “effect on food intake and body weight, blood glucose and tolerance, and serum insulin levels” value [2] is listed as “profound effect”, the “deposition of neutral lipid in liver (Oil-Red O staining)” value (C57Ks/J db/db male mice) is listed as “reduced staining with Oil Red O” and the body weight (C57BL/KsJ db/db mice; [3]) is listed as “caused weight loss”. The food intake (C57BL/KsJ db/db mice; [3]) was “decreased food intake” and the “body weight with increasing doses, versus vehicle control groups” value (C57BL/KsJ db/db mice; increasing doses, ANOVA, P<0.0001 in all cases) was “further reduction in body weight”.
